The experiment addresses T1, human TNFα (human, UniProt P01375 77-233).
T1 construct: also called hTNFα
Description: ELISA, cytokine coated on the plate; the text value differs from the table cell 43.8.
Description: The wells were then blocked with ELISA TBS buffer containing 5% BSA at 100 μl/well and incubated at room temperature for 1 hour, followed by three washes with ELISA TBS buffer (200 μl/well). […] After three washes with ELISA TBS buffer (200 μl/well), HRP-conjugated secondary antibody (Abcam, Cat. Ab98624) was applied and incubated at room temperature for 1 hour.

T1 sequence (P01375 77-233 limits assumed): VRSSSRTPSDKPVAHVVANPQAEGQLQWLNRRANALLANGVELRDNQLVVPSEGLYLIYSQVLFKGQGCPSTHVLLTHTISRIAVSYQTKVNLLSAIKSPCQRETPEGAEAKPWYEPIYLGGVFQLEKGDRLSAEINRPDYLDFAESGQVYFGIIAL

B1: IL-17RA/RC-Fc-TNFR2 fusion protein T1-T4-14 (Fc fusion)
chain: LRLLDHRAPVCSQPGLNCTVKNSDCLDDSWIHPRNLTPSSPKDLQIQLHFAHTQQGDLVPVAHIEWTLQTDASILYLEGAELSVLQLDTNERLCVRFEFLSKLRHHHRRWRFTFSHFVVDPGQEYEVTVHHLPKPIPDGDPNHQSKNFLVPDCEHPRMKVTTPCMSSALPWLNVSADGDNVHLVLNVSEEQHFGLSLYWNQVQGPPKPRWHKNLTGPQIITLNHTDLVPCLCIQVWPLEPDSVRTNICPFREDPRAHQNLWQAARLRLLTLQSWLLDAPCSLPAEAALCWRAPGGDPCQPLVPPLSWENVTVDKVLEFPLLKGHPNLCVQVNSSEKLQLQECLWADSLGPLKDDVLLLETRGPQDNRSLCALEPSGCTSLPSKASTRAARLGEYLLQDLQSGQCLQLWDDDLGALWACPMDKYIHKTGIEGRMDRNTGRGGEEKKKEKEKEEQEERETKTPECPSHTQPLGVFLFPPKPKDTLMISRTPEVTCVVVDVSQEDPEVQFNWYVDGVEVHNAKTKPREEQFNSTYRVVSVLTVLHQDWLNGKEYKCKVSNKGLPSSIEKTISKAKGQPREPQVYTLPPSQEEMTKNQVSLTCLVKGFYPSDIAVEWESNGQPENNYKTTPPVLDSDGSFFLYSRLTVDKSRWQEGNVFSCSVMHEALHNHYTQKSLSLSLGKGGGGSGGGGSGGGGSLELPAQVAFTPYAPEPGSTCRLREYYDQTAQMCCAKCPPGQHAKVFCTKTSDTVCDSCEDSTYTQLWNWVPECLSCSSRCSSDQVETQACTREQNRICTCRPGWYCALSKQEGCRLCAPLSKCRPGFGVARPGTETSDVVCKPCAPGTFSNTTSSTDICRPHQICSVVAIPGNASMDAVCTSTSPTRSMAPGAVHLPQPVSTRSQHTQPTPGPSTAPSTSILLPMGPSPPAEGSTGD
notes: Structure T1c-Fc-T4g; also called T1c-Fc-T4g; IL-17RA/RC-Fc-TNFR2 (T1-T4-14)
As for B1, the response was half-maximal at 0.0431 µg/mL (EC50).
